T1: BbvCI restriction endonuclease subunit R2 (wild type, 285 aa, 32 kDa) (Bacillus brevis)
T1 construct: Recombinant, co-expressed with the R1 subunit in E. coli; also called BbvCI-R2; subunit 2
T1 chain: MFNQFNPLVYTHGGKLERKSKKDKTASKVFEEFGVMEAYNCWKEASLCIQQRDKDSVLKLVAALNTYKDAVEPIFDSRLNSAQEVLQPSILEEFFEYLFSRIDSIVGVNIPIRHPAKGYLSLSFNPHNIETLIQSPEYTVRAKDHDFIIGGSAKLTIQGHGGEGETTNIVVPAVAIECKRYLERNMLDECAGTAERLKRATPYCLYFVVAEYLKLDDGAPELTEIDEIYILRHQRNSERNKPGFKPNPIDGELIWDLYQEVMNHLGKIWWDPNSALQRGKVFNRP

T2: BbvCI subunit R2 E177G (mutated subunit of nicking enzyme N.BbvCI 2-12) (Bacillus brevis)
T2 construct: The R2 subunit of enzyme mutant 2-12 (R1+:R2E177G), also called Nb.BbvCI; also called ECK->GCK
T2 chain: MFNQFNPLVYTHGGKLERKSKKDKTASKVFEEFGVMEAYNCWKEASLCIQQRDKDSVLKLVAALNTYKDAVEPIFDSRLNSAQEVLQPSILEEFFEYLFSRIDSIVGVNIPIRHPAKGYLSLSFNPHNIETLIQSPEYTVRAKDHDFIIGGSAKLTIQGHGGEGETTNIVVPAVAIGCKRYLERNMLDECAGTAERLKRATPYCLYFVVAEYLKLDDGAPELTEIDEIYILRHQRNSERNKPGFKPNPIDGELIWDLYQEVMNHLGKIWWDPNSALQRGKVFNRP


Tests used:
[1] = molecular target: T1, BbvCI restriction endonuclease subunit …; assay: SDS-PAGE of purified enzyme (subunits co-purify)
Excerpt: (§1) FIG. 9. SDS-PAGE analysis of purified wild type R.BbvCI restriction endonuclease (lanes 2-3: prep. ‘Dan’; lanes 4-6: prep. ‘Diane’), and of purified N.BbvCI nicking endonucleases 2-12 (lanes 7-9), and 1-37 (lanes 10-12). Lane 1 (far left) contains molecular weight markers. All the enzymes preps migrate as two bands of roughly equal intensity signifying that the enzymes are heterodimers with 1:1 subunit stoichiometry.

[2] = molecular target: T2, BbvCI subunit R2 E177G (mutated subunit …); assay: SDS-PAGE of purified enzyme (subunits co-purify)
Excerpt: as §1

Binder	binding result [1]	binding result [2]
BbvCI restriction endonuclease subunit R1 (wild type, 275 aa, 31 kDa) (enzyme, Recombinant, co-expressed with the R2 subunit in E. coli; also called BbvCI-R1; subunit 1) MINEDFFIYEQLSHKKNLEQKGKNAFDEETEELVRQAKSGYHAFIEGINYDEVTKLDLNSSVAALEDYISIAKEIEKKHKMFNWRSDYAGSIIPEFLYRIVHVATVKAGLKPIFSTRNTIIEISGAAHREGLQIRRKNEDFALGFHEVDVKIASESHRVISLAVACEVKTNIDKNKLNGLDFSAERMKRTYPGSAYFLITETLDFSPDENHSSGLIDEIYVLRKQVRTKNRVQKAPLCPSVFAELLEDILEISYRASNVKGHVYDRLEGGKLIRV	binds	binds
BbvCI subunit R1 E167G (mutated subunit of nicking enzyme N.BbvCI 1-37) (enzyme, The R1 subunit of enzyme mutant 1-37 (R1E167G:R2+), also called Nt.BbvCI; also called EVK->GVK) MINEDFFIYEQLSHKKNLEQKGKNAFDEETEELVRQAKSGYHAFIEGINYDEVTKLDLNSSVAALEDYISIAKEIEKKHKMFNWRSDYAGSIIPEFLYRIVHVATVKAGLKPIFSTRNTIIEISGAAHREGLQIRRKNEDFALGFHEVDVKIASESHRVISLAVACGVKTNIDKNKLNGLDFSAERMKRTYPGSAYFLITETLDFSPDENHSSGLIDEIYVLRKQVRTKNRVQKAPLCPSVFAELLEDILEISYRASNVKGHVYDRLEGGKLIRV	binds	–

— US20030100094A1 (NEW ENGLAND BIOLABS, published 2003)
